Results as given in patent US20260242735A1 (UNIVERSIT T BASEL, published 2026).

How the values were obtained:
human CD33 I47A = human CD33 I47A (human, UniProt P20138 18-364); experiment: alanine scan, flow cytometry, HEK293-T;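 further: antibody binding to each alanine-substituted CD33 mutant expressed transiently in HEK293-T, read as fluorescence minus background, mean of duplicates, relative to wild-type CD33 set as 100%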
human CD33 F61A = human CD33 F61A (human, UniProt P20138 18-364); experiment: alanine scan, flow cytometry, HEK293-T;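 further: antibody binding to each alanine-substituted CD33 mutant expressed transiently in HEK293-T, read as fluorescence minus background, mean of duplicates, relative to wild-type CD33 set as 100%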
Chain of human CD33 F61A (P20138 18-364 F61A limits assumed): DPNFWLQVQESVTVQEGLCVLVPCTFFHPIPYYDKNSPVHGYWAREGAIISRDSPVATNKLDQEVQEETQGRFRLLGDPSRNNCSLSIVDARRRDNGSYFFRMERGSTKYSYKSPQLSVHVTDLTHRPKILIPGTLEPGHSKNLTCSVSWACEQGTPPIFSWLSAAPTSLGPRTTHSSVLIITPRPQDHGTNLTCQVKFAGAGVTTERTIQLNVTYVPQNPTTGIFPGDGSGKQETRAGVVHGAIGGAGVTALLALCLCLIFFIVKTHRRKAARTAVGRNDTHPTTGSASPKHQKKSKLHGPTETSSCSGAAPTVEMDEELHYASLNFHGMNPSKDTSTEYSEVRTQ

human CD33 Y50A = human CD33 Y50A (human, UniProt P20138 18-364); experiment: alanine scan, flow cytometry, HEK293-T;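 further: antibody binding to each alanine-substituted CD33 mutant expressed transiently in HEK293-T, read as fluorescence minus background, mean of duplicates, relative to wild-type CD33 set as 100%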
Chain of human CD33 Y50A (P20138 18-364 Y50A limits assumed): as the sequence (P20138 18-364 F61A limits assumed) above, with Y33A, A44F counted along it

human CD33 I105A = human CD33 I105A (human, UniProt P20138 18-364); experiment: alanine scan, flow cytometry, HEK293-T;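 further: antibody binding to each alanine-substituted CD33 mutant expressed transiently in HEK293-T, read as fluorescence minus background, mean of duplicates, relative to wild-type CD33 set as 100%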
Chain of human CD33 I105A (P20138 18-364 I105A limits assumed): as the sequence (P20138 18-364 F61A limits assumed) above, with A44F, I88A counted along it

human CD33 N100A = human CD33 N100A (human, UniProt P20138 18-364); experiment: alanine scan, flow cytometry, HEK293-T
Chain of human CD33 N100A (P20138 18-364 N100A limits assumed): as the sequence (P20138 18-364 F61A limits assumed) above, with A44F, N83A counted along it

human CD33 P132A = biological target: T1, human CD33 P132A (human, UniProt P20138 18-364); experiment: alanine scan, flow cytometry, HEK293-T
T1 construct: alanine scan clone, transfected HEK293-T
T1 sequence (P20138 18-364 P132A limits assumed): as the sequence (P20138 18-364 F61A limits assumed) above, with A44F, P115A counted along it

human CD33 V165A = biological target: T2, human CD33 V165A (human, UniProt P20138 18-364); experiment: alanine scan, flow cytometry, HEK293-T
T2 construct: alanine scan clone, transfected HEK293-T
T2 sequence (P20138 18-364 V165A limits assumed): as the sequence (P20138 18-364 F61A limits assumed) above, with A44F, V148A counted along it

human CD33 L141A = biological target: T3, human CD33 L141A (human, UniProt P20138 18-364); experiment: alanine scan, flow cytometry, HEK293-T
T3 construct: alanine scan clone, transfected HEK293-T
T3 sequence (P20138 18-364 L141A limits assumed): as the sequence (P20138 18-364 F61A limits assumed) above, with A44F, L124A counted along it

human CD33 L180A = biological target: T4, human CD33 L180A (human, UniProt P20138 18-364); experiment: alanine scan, flow cytometry, HEK293-T
T4 construct: alanine scan clone, transfected HEK293-T
T4 sequence (P20138 18-364 L180A limits assumed): as the sequence (P20138 18-364 F61A limits assumed) above, with A44F, L163A counted along it

human CD33 P174A = biological target: T5, human CD33 P174A (human, UniProt P20138 18-364); experiment: alanine scan, flow cytometry, HEK293-T
T5 construct: alanine scan clone, transfected HEK293-T
T5 sequence (P20138 18-364 P174A limits assumed): as the sequence (P20138 18-364 F61A limits assumed) above, with A44F, P157A counted along it

human CD33 L187A = biological target: T6, human CD33 L187A (human, UniProt P20138 18-364); experiment: alanine scan, flow cytometry, HEK293-T
T6 construct: alanine scan clone, transfected HEK293-T
T6 sequence (P20138 18-364 L187A limits assumed): as the sequence (P20138 18-364 F61A limits assumed) above, with A44F, L170A counted along it

human CD33 F177A = biological target: T7, human CD33 F177A (human, UniProt P20138 18-364); experiment: alanine scan, flow cytometry, HEK293-T
T7 construct: alanine scan clone, transfected HEK293-T
T7 sequence (P20138 18-364 F177A limits assumed): as the sequence (P20138 18-364 F61A limits assumed) above, with A44F, F160A counted along it

human CD33 N20L = human CD33 N20L (human, UniProt P20138 18-364); experiment: flow cytometry, HEK293-T, IgG;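 further: CD33 point mutants transiently expressed, antibody binding measured by fluorescence in duplicate, background subtracted and scaled to binding on wild-type CD33 as 100%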
Chain of human CD33 N20L (P20138 18-364 N20L limits assumed): as the sequence (P20138 18-364 F61A limits assumed) above, with N3L, A44F counted along it
Description: (§1) An alanine scan on human CD33 was performed to the determine the residues on CD33 that are involved in binding to the antibodies investigated. […] Briefly, a mutation library of CD33 was created by high-throughput, site-directed mutagenesis. Each residue was individually mutated to alanine, with alanine codons mutated to serine. The mutant library was arrayed in 384-well microplates and transiently transfected into HEK293-T. Following transfection, cells were incubated with the indicated antibodies (IgG or Fab) at concentrations pre-determined using an independent immunofluorescence titration curve on wild type CD33. […] Binding of each antibody to each mutant clone was determined in duplicates. For each point, background fluorescence was subtracted from the raw data, which were then normalized to antibody reactivity with wild type CD33.
(§2) Antibodies were screened for binding to the human CD33 variants in IgG format. […] For each mutation, background fluorescence was subtracted from the raw data, which were then normalized to antibody reactivity with wild-type CD33.

human CD33 N20Y = human CD33 N20Y (human, UniProt P20138 18-364); experiment: flow cytometry, HEK293-T, IgG;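 further: CD33 point mutants transiently expressed, antibody binding measured by fluorescence in duplicate, background subtracted and scaled to binding on wild-type CD33 as 100%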
Chain of human CD33 N20Y (P20138 18-364 N20Y limits assumed): as the sequence (P20138 18-364 F61A limits assumed) above, with N3Y, A44F counted along it
Description: as §1, §2

human CD33 N20D = human CD33 N20D (human, UniProt P20138 18-364); experiment: flow cytometry, HEK293-T, IgG;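 further: CD33 point mutants transiently expressed, antibody binding measured by fluorescence in duplicate, background subtracted and scaled to binding on wild-type CD33 as 100%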
Chain of human CD33 N20D (P20138 18-364 N20D limits assumed): as the sequence (P20138 18-364 F61A limits assumed) above, with N3D, A44F counted along it
Description: as §1, §2

human CD33 V25M = human CD33 V25M (human, UniProt P20138 18-364); experiment: flow cytometry, HEK293-T, IgG;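 further: CD33 point mutants transiently expressed, antibody binding measured by fluorescence in duplicate, background subtracted and scaled to binding on wild-type CD33 as 100%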
Chain of human CD33 V25M (P20138 18-364 V25M limits assumed): as the sequence (P20138 18-364 F61A limits assumed) above, with V8M, A44F counted along it
Description: as §1, §2

human CD33 F21I = human CD33 F21I (human, UniProt P20138 18-364); experiment: flow cytometry, HEK293-T, IgG
Chain of human CD33 F21I (P20138 18-364 F21I limits assumed): as the sequence (P20138 18-364 F61A limits assumed) above, with F4I, A44F counted along it
Description: as §1, §2

human CD33 N20E = human CD33 N20E (human, UniProt P20138 18-364); experiment: flow cytometry, HEK293-T, IgG
Chain of human CD33 N20E (P20138 18-364 N20E limits assumed): as the sequence (P20138 18-364 F61A limits assumed) above, with N3E, A44F counted along it
Description: as §1, §2

human CD33 Q24V = human CD33 Q24V (human, UniProt P20138 18-364); experiment: flow cytometry, HEK293-T, IgG
Chain of human CD33 Q24V (P20138 18-364 Q24V limits assumed): as the sequence (P20138 18-364 F61A limits assumed) above, with Q7V, A44F counted along it
Description: as §1, §2

human CD33 F21H = human CD33 F21H (human, UniProt P20138 18-364); experiment: flow cytometry, HEK293-T, IgG
Chain of human CD33 F21H (P20138 18-364 F21H limits assumed): as the sequence (P20138 18-364 F61A limits assumed) above, with F4H, A44F counted along it
Description: as §1, §2

human CD33 N20W = human CD33 N20W (human, UniProt P20138 18-364); experiment: flow cytometry, HEK293-T, IgG
Chain of human CD33 N20W (P20138 18-364 N20W limits assumed): as the sequence (P20138 18-364 F61A limits assumed) above, with N3W, A44F counted along it
Description: as §1, §2

human CD33 N20T = human CD33 N20T (human, UniProt P20138 18-364); experiment: flow cytometry, HEK293-T, IgG
Chain of human CD33 N20T (P20138 18-364 N20T limits assumed): as the sequence (P20138 18-364 F61A limits assumed) above, with N3T, A44F counted along it
Description: as §1, §2

human CD33 L23M = human CD33 L23M (human, UniProt P20138 18-364); experiment: flow cytometry, HEK293-T, IgG
Chain of human CD33 L23M (P20138 18-364 L23M limits assumed): as the sequence (P20138 18-364 F61A limits assumed) above, with L6M, A44F counted along it
Description: as §1, §2

human CD33 F21V = human CD33 F21V (human, UniProt P20138 18-364); experiment: flow cytometry, HEK293-T, IgG
Chain of human CD33 F21V (P20138 18-364 F21V limits assumed): as the sequence (P20138 18-364 F61A limits assumed) above, with F4V, A44F counted along it
Description: as §1, §2

human CD33 Q24E = human CD33 Q24E (human, UniProt P20138 18-364); experiment: flow cytometry, HEK293-T, IgG
Chain of human CD33 Q24E (P20138 18-364 Q24E limits assumed): as the sequence (P20138 18-364 F61A limits assumed) above, with Q7E, A44F counted along it
Description: as §1, §2

human CD33 W22L = human CD33 W22L (human, UniProt P20138 18-364); experiment: flow cytometry, HEK293-T, IgG
Chain of human CD33 W22L (P20138 18-364 W22L limits assumed): as the sequence (P20138 18-364 F61A limits assumed) above, with W5L, A44F counted along it
Description: as §1, §2

human CD33 Q24L = human CD33 Q24L (human, UniProt P20138 18-364); experiment: flow cytometry, HEK293-T, IgG
Chain of human CD33 Q24L (P20138 18-364 Q24L limits assumed): as the sequence (P20138 18-364 F61A limits assumed) above, with Q7L, A44F counted along it
Description: as §1, §2

human CD33 W22N = human CD33 W22N (human, UniProt P20138 18-364); experiment: flow cytometry, HEK293-T, IgG
Chain of human CD33 W22N (P20138 18-364 W22N limits assumed): as the sequence (P20138 18-364 F61A limits assumed) above, with W5N, A44F counted along it
Description: as §1, §2

human CD33 W22P = human CD33 W22P (human, UniProt P20138 18-364); experiment: flow cytometry, HEK293-T, IgG
Chain of human CD33 W22P (P20138 18-364 W22P limits assumed): as the sequence (P20138 18-364 F61A limits assumed) above, with W5P, A44F counted along it
Description: as §1, §2

human CD33 V25I = human CD33 V25I (human, UniProt P20138 18-364); experiment: flow cytometry, HEK293-T, IgG
Chain of human CD33 V25I (P20138 18-364 V25I limits assumed): as the sequence (P20138 18-364 F61A limits assumed) above, with V8I, A44F counted along it
Description: as §1, §2

human CD33 F21S = human CD33 F21S (human, UniProt P20138 18-364); experiment: flow cytometry, HEK293-T, IgG
Chain of human CD33 F21S (P20138 18-364 F21S limits assumed): as the sequence (P20138 18-364 F61A limits assumed) above, with F4S, A44F counted along it
Description: as §1, §2

human CD33 W22T = human CD33 W22T (human, UniProt P20138 18-364); experiment: flow cytometry, HEK293-T, IgG
Chain of human CD33 W22T (P20138 18-364 W22T limits assumed): as the sequence (P20138 18-364 F61A limits assumed) above, with W5T, A44F counted along it
Description: as §1, §2

human CD33 P19K = human CD33 P19K (human, UniProt P20138 18-364); experiment: flow cytometry, HEK293-T, IgG
Chain of human CD33 P19K (P20138 18-364 P19K limits assumed): as the sequence (P20138 18-364 F61A limits assumed) above, with P2K, A44F counted along it
Description: as §1, §2

human CD33 N20Q = human CD33 N20Q (human, UniProt P20138 18-364); experiment: flow cytometry, HEK293-T, IgG
Chain of human CD33 N20Q (P20138 18-364 N20Q limits assumed): as the sequence (P20138 18-364 F61A limits assumed) above, with N3Q, A44F counted along it
Description: as §1, §2

human CD33 D18R = human CD33 D18R (human, UniProt P20138 19-364); experiment: flow cytometry, HEK293-T, IgG
Chain of human CD33 D18R (P20138 18-364 D18R limits assumed): as the sequence (P20138 18-364 F61A limits assumed) above, with D1R, A44F counted along it
Description: as §1, §2

human CD33 N20V = human CD33 N20V (human, UniProt P20138 18-364); experiment: flow cytometry, HEK293-T, IgG
Chain of human CD33 N20V (P20138 18-364 N20V limits assumed): as the sequence (P20138 18-364 F61A limits assumed) above, with N3V, A44F counted along it
Description: as §1, §2

Chain of human CD33 I47A (P20138 18-364 I47A limits assumed): as the sequence (P20138 18-364 F61A limits assumed) above, with I30A, A44F counted along it

Binder | Mean % WT Binding (human CD33 I47A) | Mean % WT Binding (human CD33 F61A) | Mean % WT Binding (human CD33 Y50A) | Mean % WT Binding (human CD33 I105A) | Mean % WT Binding (human CD33 N100A) | Mean % WT Binding (human CD33 P132A) | Mean % WT Binding (human CD33 V165A) | Mean % WT Binding (human CD33 L141A) | Mean % WT Binding (human CD33 L180A) | Mean % WT Binding (human CD33 P174A) | Mean % WT Binding (human CD33 L187A) | Mean % WT Binding (human CD33 F177A) | Mean % WT Binding (human CD33 N20L) | Mean % WT Binding (human CD33 N20Y) | Mean % WT Binding (human CD33 N20D) | Mean % WT Binding (human CD33 V25M) | Mean % WT Binding (human CD33 F21I) | Mean % WT Binding (human CD33 N20E) | Mean % WT Binding (human CD33 Q24V) | Mean % WT Binding (human CD33 F21H) | other results
Refmab #5 (antibody, V domains shown, Full-length format is human IgG1 Fc silent (PG-LALA); also made as Fab; The alanine scan used IgG or Fab) VH: QVQLVQSGAEVKKPGASVKVSCKASGYTFTNYDINWVRQAPGQGLEWIGWIYPGDGSTKYNEKFKAKATLTADTSTSTAYMELRSLRSDDTAVYYCASGYEDAMDYWGQGTTVTVSS VL: DIQMTQSPSSLSASVGDRVTINCKASQDINSYLSWFQQKPGKAPKTLIYRANRLVDGVPSRFSGSGSGQDYTLTISSLQPEDFATYYCLQYDEFPLTFGGGTKVEIK | 117 % WT binding | 161 % WT binding | 55.7 % WT binding | 41.7 % WT binding | 165 % WT binding |  |  |  |  |  |  |  |  |  |  |  |  |  |  |  | 
Refmab #6 (antibody, V domains shown, Full-length format is human IgG1 Fc silent (PG-LALA); also made as Fab; The alanine scan used IgG or Fab) VH: QVQLQQPGAEVVKPGASVKMSCKASGYTFTSYYIHWIKQTPGQGLEWVGVIYPGNDDISYNQKFQGKATLTADKSSTTAYMQLSSLTSEDSAVYYCAREVRLRYFDVWGQGTTVTVSS VL: EIVLTQSPGSLAVSPGERVTMSCKSSQSVFFSSSQKNYLAWYQQIPGQSPRLLIYWASTRESGVPDRFTGSGSGTDFTLTISSVQPEDLAIYYCHQYLSSRTFGQGTKLEIK | 117 % WT binding | 111 % WT binding | 113 % WT binding | 25.5 % WT binding | 83.9 % WT binding |  |  |  |  |  |  |  |  |  |  |  |  |  |  |  | 
Refmab #5 (antibody, V domains shown, The alanine scan used IgG or Fab) VH: QVQLVQSGAEVKKPGASVKVSCKASGYTFTNYDINWVRQAPGQGLEWIGWIYPGDGSTKYNEKFKAKATLTADTSTSTAYMELRSLRSDDTAVYYCASGYEDAMDYWGQGTTVTVSS VL: DIQMTQSPSSLSASVGDRVTINCKASQDINSYLSWFQQKPGKAPKTLIYRANRLVDGVPSRFSGSGSGQDYTLTISSLQPEDFATYYCLQYDEFPLTFGGGTKVEIK |  |  |  |  |  | 97.3 % WT binding | 174 % WT binding | 94.5 % WT binding | 118 % WT binding | 118 % WT binding | 144 % WT binding | 57.3 % WT binding |  |  |  |  |  |  |  |  | 
Refmab #6 (antibody, V domains shown, The alanine scan used IgG or Fab) VH: QVQLQQPGAEVVKPGASVKMSCKASGYTFTSYYIHWIKQTPGQGLEWVGVIYPGNDDISYNQKFQGKATLTADKSSTTAYMQLSSLTSEDSAVYYCAREVRLRYFDVWGQGTTVTVSS VL: EIVLTQSPGSLAVSPGERVTMSCKSSQSVFFSSSQKNYLAWYQQIPGQSPRLLIYWASTRESGVPDRFTGSGSGTDFTLTISSVQPEDLAIYYCHQYLSSRTFGQGTKLEIK |  |  |  |  |  | 3.6 % WT binding | 101 % WT binding | 97.5 % WT binding | 97.1 % WT binding | 103 % WT binding | 119 % WT binding | 48.7 % WT binding |  |  |  |  |  |  |  |  | 
Refmab #5 (antibody, human IgG1, V domains shown, tested in IgG format) VH: QVQLVQSGAEVKKPGASVKVSCKASGYTFTNYDINWVRQAPGQGLEWIGWIYPGDGSTKYNEKFKAKATLTADTSTSTAYMELRSLRSDDTAVYYCASGYEDAMDYWGQGTTVTVSS VL: DIQMTQSPSSLSASVGDRVTINCKASQDINSYLSWFQQKPGKAPKTLIYRANRLVDGVPSRFSGSGSGQDYTLTISSLQPEDFATYYCLQYDEFPLTFGGGTKVEIK |  |  |  |  |  |  |  |  |  |  |  |  | 96.3 % WT binding | 57.7 % WT binding | 97.1 % WT binding | 87.6 % WT binding | 95.7 % WT binding | 109 % WT binding | 97.9 % WT binding | 108 % WT binding | Mean % WT Binding (human CD33 N20W): 71.7 % WT binding; Mean % WT Binding (human CD33 N20T): 107 % WT binding; Mean % WT Binding (human CD33 L23M): 90.7 % WT binding; Mean % WT Binding (human CD33 F21V): 104 % WT binding; Mean % WT Binding (human CD33 Q24E): 95.6 % WT binding; Mean % WT Binding (human CD33 W22L): 96 % WT binding; Mean % WT Binding (human CD33 Q24L): 101 % WT binding; Mean % WT Binding (human CD33 W22N): 106 % WT binding; Mean % WT Binding (human CD33 W22P): 110 % WT binding; Mean % WT Binding (human CD33 V25I): 98.9 % WT binding; Mean % WT Binding (human CD33 F21S): 112 % WT binding; Mean % WT Binding (human CD33 W22T): 108 % WT binding; Mean % WT Binding (human CD33 P19K): 86.2 % WT binding; Mean % WT Binding (human CD33 N20Q): 93.2 % WT binding; Mean % WT Binding (human CD33 D18R): 97.4 % WT binding; Mean % WT Binding (human CD33 N20V): 108 % WT binding
Refmab #6 (antibody, human IgG1, V domains shown, tested in IgG format) VH: QVQLQQPGAEVVKPGASVKMSCKASGYTFTSYYIHWIKQTPGQGLEWVGVIYPGNDDISYNQKFQGKATLTADKSSTTAYMQLSSLTSEDSAVYYCAREVRLRYFDVWGQGTTVTVSS VL: EIVLTQSPGSLAVSPGERVTMSCKSSQSVFFSSSQKNYLAWYQQIPGQSPRLLIYWASTRESGVPDRFTGSGSGTDFTLTISSVQPEDLAIYYCHQYLSSRTFGQGTKLEIK |  |  |  |  |  |  |  |  |  |  |  |  | 88.2 % WT binding | 28 % WT binding | 103 % WT binding | 68.6 % WT binding | 89.3 % WT binding | 108 % WT binding | 94.3 % WT binding | 111 % WT binding | Mean % WT Binding (human CD33 N20W): 50.3 % WT binding; Mean % WT Binding (human CD33 N20T): 106 % WT binding; Mean % WT Binding (human CD33 L23M): 100 % WT binding; Mean % WT Binding (human CD33 F21V): 118 % WT binding; Mean % WT Binding (human CD33 Q24E): 89.7 % WT binding; Mean % WT Binding (human CD33 W22L): 1.1 % WT binding; Mean % WT Binding (human CD33 Q24L): 98.9 % WT binding; Mean % WT Binding (human CD33 W22N): 5.6 % WT binding; Mean % WT Binding (human CD33 W22P): 1.8 % WT binding; Mean % WT Binding (human CD33 V25I): 106 % WT binding; Mean % WT Binding (human CD33 F21S): 115 % WT binding; Mean % WT Binding (human CD33 W22T): 2.6 % WT binding; Mean % WT Binding (human CD33 P19K): 85.4 % WT binding; Mean % WT Binding (human CD33 N20Q): 97.2 % WT binding; Mean % WT Binding (human CD33 D18R): 68.3 % WT binding; Mean % WT Binding (human CD33 N20V): 96.9 % WT binding
